From patent US12006519B2, “Polymerase mutants and use with 3′-OH unblocked reversible terminators” (Agilent Technologies, Inc., priority 2021, dated 2024)
Numbering of substitutions follows the chain as printed. Names may count otherwise.

Columns and labels:
Format in all cases: biochemical
Lightning Terminators [1] = assay: Plate-based assay, incorporation of Lightning Terminators by control extracts
Description: (§1) In this example, additional mutant polymerases were derived from Pfu polymerase. To generate the mutants, eighty-seven codons in the Pfu pol B gene were saturated using the QuikChange Lightning Mutagenesis kit and oligonucleotides containing “NDT” codons to create R, N, D, C, G, H, I, L, F, S, Y, and V substitutions with equal frequency. In some cases, mutants missing from NDT libraries were prepared in a separate QuikChange reaction with an equimolar mixture of mutagenic oligos encoding the remaining mutations (A, T, K, Q, E, P, […], W). Thirty-two clones were randomly selected from each QuikChange library (with the exception of T267, Y403, Y410, I475, G499 and K675 libraries which generated fewer transformants). Bacterial lysates were prepared and screened for incorporation of LTA and LTC using a plate-based assay with immobilized primer-templates. A limited number of mutants were also screened for utilization of LTG and LTU (similar trends; data not shown). After washing and UV cleavage (to minimize dye quenching effects), plates were read and fluorescent signals compared to Pfu controls. The following table identifies four mutant Pfu polymerases that served as controls, which were given the arbitrary names Pfu5, Pfu1, and Pfu2, along with Pfu10 (which is discussed above).
Selected lysates, based on screening results, were submitted for sequencing, and an amino acid identification was made based on the selections. […] As shown in Example 3, K477W benefits sequencing by increasing the fraction of full-length reads.

dATP = assay: Template-independent DNA synthesis assay with dATP (terminal transferase activity)
Description: (§2) The template-independent DNA synthesis reactions employed 7.5 U TdT (Promega) or 180 nM (3×over primer) Pfu26 (D141A/E143A/A486L/Y546H/K477W/L409Y) or Pfu48 (D141A/E143A/A486R/Y546H/K477W/L409Y). Varying concentrations of dATP were added to 2 μM (TdT) or 60 nM (Pfu) T7 FOR primer (6′Fam […]) (SEQ ID NO:6) in duplicate reactions containing 1×TdT buffer with CoCl2(Promega) or 1×ThermoPol buffer (NEB). Reactions were incubated for 30 min. at 37° C. (TdT) or 60° C. (Pfu), and then inactivated with heat (TdT; 10 min. at 70° C.) or EDTA (1 ul 500 uM EDTA). Reaction products were exposed to UV using a Stratalinker (15-watt bulbs, […], 10 min). Reactions were diluted in water (TdT, 1:333; Pfu, 1:10) and 1 μl (TdT) or 0.5 μl (Pfu) aliquots were brought up to 10 μl with HiDI/LIZ 120 Size Standard. Products were heated at 95° C. for 5 min., cooled on ice for 2 min., and then analyzed on an ABI 3500 capillary electrophoresis system ([…] capillary, filter set #5, assay=GE5 LIZ120).
Terminal transferase activity was measured by the number of template-independent dATP additions. Results are shown for TdT in FIG. 9A, for Pfu26 in FIG. 9B and for Pfu48 in FIG. 9C.

Lightning Terminators [2] = assay: Sequencing-by-synthesis with Lightning Terminators (87 cycles); parameters: ARL (87 cycles) / Lead + Lag / Leading / Lagging: unit not given here
Procedure, shortened: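 Mutant 9°N-family DNA polymerases (Therminator; JDF3 and Pfu carrying D141A/E143A/A485L) run in sequencing-by-synthesis on a breadboard instrument with 3′-OH unblocked Lightning Terminators, 87 cycles. Metrics include Lead+Lag dephasing, i.e. reading next- or previous-base signal from imperfect terminator incorporation.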

LTC = assay: Plate-based assay with immobilized primer-templates, incorporation of LTC; details: FIG. 6
Description: as §1

E. coli DNA library = assay: Sequencing with Lightning Terminators, E. coli DNA library (120 cycles)
Description: (§3) This section generally describes how the present mutant polymerases were used for sequencing-by-synthesis, and how their performance in sequencing was measured. Sequencing was performed on a breadboard instrument, essentially as described in Hertzog D, et al., “A high-performance, low-cost approach to next-generation sequencing”, BioOptics World. 2011 Issue November/December 2011.
(§4) In this example, a variety of mutations were introduced into Pfu10 by multi-site mutagenesis or into Pfu A486L/Y546H by domain substitutions to explore an acceptable degree of reduced identity and identify other mutant Pfu polymerases containing L486, F494, H546, and W477. […] Pfu10 and Pfu10-N12 were evaluated for performance in sequencing with Lightning Terminators, as described above.

Human DNA library = assay: Sequencing with Lightning Terminators, Human DNA library (120 cycles); details: Human DNA library
Description: as §3, §4

LTA-2 [3] = assay: Multi-cycle template-independent addition of LTA-2 (TiEOS); details: 7-deaza-7-hydroxymethyl-α-tert-butyl-2-nitrobenzyl modified LTA, 3 or 6 cycles
Description: This example tested the multi-cycle addition of a 3′-OH unblocked reversible terminator (LTA-2, shown in FIG. 1F) to the 3′ end of a single-stranded priming strand using the Pfu26 mutant polymerase. Single-base extension assays were performed as described in Example 7 using Pfu26 with modified LTA-2 that has a-tert-butyl substituted 2-nitrobenyl terminating group attached to 7-deaza-C7hydroxymethyl group. The modified LTA-2 optionally contains the αS triphosphate modification and HPLC-purified to isolate the Sp isomer (FIGS. 13A and 13C). At each incorporation cycle (3 cycles-FIGS. 13A&13B; 6 cycles-FIG. 13C), 1 ul was removed and saved on ice for ABI 3500 analysis. At each cycle, the remaining reaction volume was purified using MyOne T1 […] beads as follows (for the 3-cycle experiment). 127.5 ul of beads were washed 2×in 1 ml wash solution and resuspended in the original volume with the wash solution. A biotinylated, antisense T7 (underlined) primer with spacer (5′-CCCTATAGTGAGTCGTATACGGAGCATA-biotin) was added at a final concentration of 180 nM. The beads and capture oligo were mixed at 300 rpm for 30 min. at room temperature, washed 2×in 500 ul wash solution, and resuspended in 150 ul of the same. […] After purification (cycles 2-6), 2 ul of fresh enzyme/LTA mix was added, and the primer extensions were performed and analyzed as described above.

LTA-2 [4] = assay: Template-independent incorporation of LTA-2, LTU-2, LTG-2, LTC-2 to priming strands
Description: as §2
In this example, primer extension was carried out with LTA-2 (FIG. 1F) as a Rp+Sp racemic mixture of α-thiotriphosphate, using the conditions described in Example 7.
In further experiments, single-base extension reactions (10 ul) were performed with an equimolar mixture (3 uM each) of two single-stranded oligommcleotides:
Both were labeled with Fam but distinguishable by their lengths using capillary electrophoresis. Primer extension reactions were performed using the following three Pfu mutants at a concentration of 18 nM polymerase: • Pfu10: Pfu polymerase with D141A/E143A/A486L/Y546H/K477W mutations (SEQ ID NO:2) • Pfu26: Pfu polymerase with D141A/E143A/A486L/Y546H/K477W/L409Y mutations (SEQ ID NO:4) • Pfu48: Pfu polymerase with D141A/E143A/A486R/Y546H/K477W/L409Y mutations (SEQ ID NO:5) The extension reactions also employed individual αS-modified LTs in Rp+Sp racemic mixture (namely, LTA-2, LTU-2, LTG-2, and LTC-2) at final concentrations of 5 uM. LTU-2, LTG-2, and LTC-2 are all C7 or C5-hydroxymethyl-a-tert-butyl-2-nitrobenzyl modified reversible terminators like LTA-2, with uracil, guanine, and cytosine in place of adenine. […] Reactions were incubated, stopped, UV-treated, and analyzed as described in Example 7.
(§5) Primer extensions were carried out in duplicate 25 ul reactions containing 7.5 U calf thymus TdT, 1×Promega TdT buffer (with CoCl2), varying concentrations of LTA-1 (100 uM, 50 uM, 10 uM, 5 uM, or 1 uM), and either 2 uM (FIG. 11A to 11C) or 80 nM (FIG. 11D to 11F) of a priming strand (Fam-labeled T7 F primer (6Fam […]), SEQ ID NO:8). Controls were performed without the addition of a polymerase. Primer extensions were also carried out in reactions containing the Pfu26 mutant polymerase, 60 nM of the priming strand, and various concentrations (10 μM or 5 μM or 1 μM) of LTA-1 or LTA-2.

LTA-1 = assay: Template-independent incorporation of LTA-1 to a priming strand
Description: This example tested the addition of a 3′-OH unblocked reversible terminator (LTA-1, shown in FIG. 1E, or LTA-2, shown in FIG. 1F) to the 3′ end of a single-stranded priming strand. The extension reaction was performed with 2 uM or 80 nM of a priming strand and varying concentrations (100/50/10/5/1 μM) of the reversible terminator. The performance of the Pfu26 polymerase was compared to TdT polymerase.
as §5
Reactions were incubated at 37° C. for 30 min., and then heat-killed for 10 min. at 70° C. Reaction products were split in half, and one-half was treated with UV as described in Example 7. Reactions were then diluted 1:333 (2 uM primer) or 1:13 (80 nM primer) in water, and 0.5 ul portions were analyzed by capillary electrophoresis using the conditions provided in Example 7.

B1: Pfu10: Pfu D141A/E143A/K477W/A486L/Y546H, SEQ ID NO:2 (protein)
chain: MILDVDYITEEGKPVIRLFKKENGKFKIEHDRTFRPYIYALLRDDSKIEEVKKITGERHGKIVRIVDVEKVEKKFLGKPITVWKLYLEHPQDVPTIREKVREHPAVVDIFEYDIPFAKRYLIDKGLIPMEGEEELKILAFAIATLYHEGEEFGKGPIIMISYADENEAKVITWKNIDLPYVEVVSSEREMIKRFLRIIREKDPDIIVTYNGDSFDFPYLAKRAEKLGIKLTIGRDGSEPKMQRIGDMTAVEVKGRIHFDLYHVITRTINLPTYTLEAVYEAIFGKPKEKVYADEIAKAWESGENLERVAKYSMEDAKATYELGKEFLPMEIQLSRLVGQPLWDVSRSSTGNLVEWFLLRKAYERNEVAPNKPSEEEYQRRLRESYTGGFVKEPEKGLWENIVYLDFRALYPSIIITHNVSPDTLNLEGCKNYDIAPQVGHKFCKDIPGFIPSLLGHLLEERQKIKTKMKETQDPIEWILLDYRQKLIKLLANSFYGYYGYAKARWYCKECAESVTAWGRKYIELVWKELEEKFGFKVLYIDTDGLHATIPGGESEEIKKKALEFVKYINSKLPGLLELEYEGFYKRGFFVTKKRYAVIDEEGKVITRGLEIVRRDWSEIAKETQARVLETILKHGDVEEAVRIVKEVIQKLANYEIPPEKLAIYEQITRPLHEYKAIGPHVAVAKKLAAKGVKIKPGMVIGYIVLRGDGPISNRAILAEEYDPKKHKYDAEYYIENQVLPAVLRILEGFGYRKEDLRYQKTRQVGLTSWLNIKKS
modifications: Mutant of Pyrococcus furiosus Polymerase
Effect on LTA and LTU incorporation (in words) (Lightning Terminators [1]; K477W, or final fluorescence due to tryptophan quenching): negative impact on LTA and LTU incorporation | Utilization of Lightning Terminators (in words) (Lightning Terminators [1]; control extracts, FIG. 6, FIGS. 7A-7B): could utilize Lightning Terminators | Non-templated dA-addition (terminal transferase activity) (dATP): fail to perform non-templated dA-addition | Sequencing performance with Lightning Terminators (in words) (Lightning Terminators [2]): improved sequencing enzyme | % reads >85 bp (Lightning Terminators [2]; Example 3): 69.5% | FracQ30 (Lightning Terminators [2]; Example 3): 0.62 | Lagging (Lightning Terminators [2]; Example 3): 0.66 | Leading (Lightning Terminators [2]; Example 3): 0.24 | ARL (87 cycles) (Lightning Terminators [2]; Example 3, Therminator 110 runs, Pfu10 12 runs): 80.4 | Incorporation of LTC (in words) (LTC): maximize incorporation of LTC | % reads >85 (E. coli DNA library): 79.9% | ARL (120 cycles) (E. coli DNA library): 92.3 | FracQ30 (E. coli DNA library): 0.63 | Lead + Lag (E. coli DNA library): 0.8 | % reads >85 (Human DNA library): 92.0% | ARL (120 cycles) (Human DNA library): 109.7 | FracQ30 (Human DNA library): 0.65 | Lead + Lag (Human DNA library): 1.1

B2: Pfu26: Pfu D141A/E143A/A486L/Y546H/K477W/L409Y, SEQ ID NO:4 (protein)
chain: B1 chain with L409Y
modifications: Mutant of Pyrococcus furiosus Polymerase
Multi-cycle addition of LTA-2 (in words) (LTA-2 [3]): did not generate an individual product with 100% efficiency after 2-3 rounds of TiEOS | Template-independent incorporation of LTA-2, LTU-2, LTG-2 and LTC-2 (in words) (LTA-2 [4]; 18 nM polymerase, 5 uM terminators, CE2 and T7 oligonucleotides): superior to Calf thymus Terminal Transferase (TdT) | Template-independent incorporation of LTA-2 (in words) (LTA-2 [4]; single-stranded priming strand): efficient incorporation and termination | Template-independent incorporation of LTA-1 (in words) (LTA-1): incorporate LTA-1 less efficiently
